Measured values published in the nanobody polyreactivity screen of Harvey et al. (2022).

Experiment: yeast display, Sf9 membrane polyspecificity reagent, FACS + sequencing; frameworks hold sequencing errors
Procedure, shortened: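 Nanobodies came from a synthetic yeast display library in Saccharomyces cerevisiae BJ5465, induced with galactose for 36–48 hours and stained for 1 hour at 4 °C with 10% biotinylated, detergent-solubilized Sf9 membrane reagent. Cells were enriched on streptavidin microbeads and then FACS-sorted, with low and high (top ~1%) gates set on anti-HA fluorescence for expression and streptavidin fluorescence for reagent binding. Each polyreactivity label reflects the gate a clone came from. Genes were amplified by colony PCR, sequenced by MiSeq 2 × 250 and filtered by CDR length.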

Row | Sequence | polyreactivity (PSR sort gate)
1 | QVQLVESGGCLVQAGGSLRLSCAASGRTFYTNGMGWYRQAPGKEREFVAGITYRGGGTYYADSVKGRFTISRDNAQNTVYLQMNSLKPEDTAVYYCAARYYRDYRWYTYAYDYWGQGTQVTVSS | high polyreactivity
2 | QVQLVESGGCLVQAGGSLRLSCAASGRTLDFNVLGWYRPAPGQERELVAAITWSGGSTYYADSVKGRFTISRDNAQNTVYLQMNSLKQEDTAGYYCAAKALYAYRLYDYSGQGTQVTVSS | high polyreactivity
3 | QVQLVESGGCLVQAGGSLRLSCAASGRTSTGYSMGWYRQAPGKERELVAGIDKIGGRTYYADSVKGRFTISRDNAKNTVYLQMNSLKPEDTAVYYCAVKTSPRRYYWGQGTQVTVSS | high polyreactivity
4 | QVQLVESGGCLVQAGGSLRLSCAASGSIFGAYVMGWYRQAPGKERELVAAITRRGGSTYYADSVKGRFTISRDNAKNTVYLQMNSLKPEDTAVYYCAARRGAGDGYWGQGTQVTVSS | high polyreactivity
5 | QVQLVESGGCLVQAGGSLRLSCAASGSIFGENAMGWYRQAPGKERELVAAITSGGSTDYADSVKGRFTISRDNAKNTVYLQMNSLKTEDTAVYYCAASGRVGPGYWYDSWGQGTQVTVSS | low polyreactivity
6 | QVQLVESGGCLVQAGGSLRLSCAASGSIFGVNAMGGYRQPPGKDRELVASITGGDSTNYADSVKGRFTISRDNAKNTVYLQMNSLKPEDTAVYYCAKDHYYRYEEGDYWGLGTQVTVSS | low polyreactivity
7 | QVQLVESGGCLVQAGGSLRLSCAASGSIFLSNAMGWYRQAPGKERELVATIDDNGGSTYYADSVKGRFTISRDNAKNTVYLQMNSLKPEDTAVYYCAKQVRVWDLYYYLEEGYWGQGTQVTVSS | low polyreactivity
8 | QVQLVESGGCLVQAGGSLRLSCAASGSIFLTYAMGWYIQAPGKERELVASSTGGGSTNYADSVKGRFTSSRDNAKNTVYLQRNSLKPEDTAVYYCAKKAIVSDQWDKYDYWGQGTQVTVSS | low polyreactivity
9 | QVQLVESGGCLVQAGGSLRLSCAASGSIFRYYNMGWYRQAPGKERELVAVINWSGGSTYYADSVKWRFTISRDNAKNTVYLQMNSLKPEDCAVYYCAICFWRTRRYGADPRTKYDYWGLGTQVTVSS | high polyreactivity
10 | QVQLVESGGCLVQAGGSLRLSCAASGSIFSWYGMSWYRQAPGKERELVAAITWGGGSTYYADSVKGRFTISRDNAKNSVYLQMNSLKPEDTAVYYCEVDYWGQCTQVTVSS | low polyreactivity
11 | QVQLVESGGCLVQAGGSLRLSCAASGSIRSYAMGWYRQAPGKERELVAAITRSGGSTYYADSVKGRFTISRDNAKNTVYLPMKSLKPEDTAVYYCAARYTYSYPLFGSWGQGTQVTVSS | high polyreactivity
12 | QVQLVESGGCLVQAGGSLRLSCAASGSSFTSNSMGWSRHAPGKERELVAAISSCGGSTYYADSVKGRFTISRDNATQTVYIQMNSLKPEDTAVYYCAADVHWPYRYDYWGQGTQVTVSS | low polyreactivity
13 | QVQLVESGGCLVQAGGSLRLSCAASGSTFGLYAKGLYRQAPGTEREFVAAITSTGGSTYFADSVKGRFTISRDNAQNTVYLQLNSLKPEDTAVYDSYADFFVWRYPHYLIFGYWGQGTQVTVSS | low polyreactivity
14 | QVQLVESGGCLVQAGGSLRLSCAASGSTFGYNTMGWYRQAPGKERELDAAITGTGRTNYADSVKGRFTISRDNAKNNVYLQMYSLKPEDTAVYYCNARQAGTRYKYGYYGRYYWGHGTQVTVSS | high polyreactivity
15 | QVQLVESGGCLVQAGGSLRLSCAASGSTFNWNAMGWYRQAPGKERELVAAITSSGARTRYADSVKGRFTISRDNAKNTVYLQMNSLKPEDTAVYYCAAYVYISPSGYYYWGLGTQVTVSS | low polyreactivity
16 | QVQLVESGGCLVQAGGSLRLSCAASGSTFRFYAMGWYRQAPGKERELVATISSSGGTTYYADSVKGRFTISRDNAKNTVYLQMNSLKPEDTAVSYCAKDAFGWGRVYYYRSGYWGHGTQVTVSS | high polyreactivity
17 | QVQLVESGGCLVQAGGSLRLSCAASGSTFRYYAMGWYRQAPGKESELVARITSRAGRTYYADSVKGRFTISRDIAKNTVYLQMNSLKPEDTAVYFCNTRDFSGYVHALSLYDYWGQGTQVTVSS | high polyreactivity
